Source: US20110118131A1 (published 2011)
Residue numbers refer to the chain shown, from its start. Names and notes keep the numbering of the source.

B1: XPA23 light chain W32N (Fab, V domains shown)
VH: EVQLLESGGGLVQPGGSLRLSCAASGFTFSKYFMFWVRQAPGKGLEWVSVISPSGGMTRYADSVKGRFTISRDNSKNTLYLQMNSLRAEDTAVYYCARVGYGGNSDYWGQGTLVTVSS
VL: DIQMTQSPSSVSASVGDRLTIICRASQDINRNLAWYQQTPGNAPKLLIHSATSLQSGVPSRFSGSGSGTDFTLTINSLQPEDFATYYCQQADSFPLTFGGGTKVEIK
B2: XPA23 light chain T52V (Fab, V domains shown)
VH: B1 VH
VL: B1 VL with N32W, T52V
B3: XPA23 light chain T52N (Fab, V domains shown)
VH: B1 VH
VL: B1 VL with N32W, T52N
B4: XPA23 light chain W32S (Fab, V domains shown)
VH: B1 VH
VL: B1 VL with N32S
B5: XPA23 light chain W32Q (Fab, V domains shown)
VH: B1 VH
VL: B1 VL with N32Q
B6: XPA23 light chain T52L (Fab, V domains shown)
VH: B1 VH
VL: B1 VL with N32W, T52L
B7: XPA23 light chain W32A (Fab, V domains shown)
VH: B1 VH
VL: B1 VL with N32A
B8: XPA23 light chain W32T (Fab, V domains shown)
VH: B1 VH
VL: B1 VL with N32T
B9: XPA23 light chain T52E (Fab, V domains shown)
VH: B1 VH
VL: B1 VL with N32W, T52E
B10: XPA23 light chain W32D (Fab, V domains shown)
VH: B1 VH
VL: B1 VL with N32D
B11: XPA23 light chain T52G (Fab, V domains shown)
VH: B1 VH
VL: B1 VL with N32W, T52G
B12: XPA23 light chain W32P (Fab, V domains shown)
VH: B1 VH
VL: B1 VL with N32P
B13: XPA23 light chain W32F (Fab, V domains shown)
VH: B1 VH
VL: B1 VL with N32F
B14: XPA23 light chain T52W (Fab, V domains shown)
VH: B1 VH
VL: B1 VL with N32W, T52W
B15: XPA23 light chain T52I (Fab, V domains shown)
VH: B1 VH
VL: B1 VL with N32W, T52I
B16: XPA23 light chain T52K (Fab, V domains shown)
VH: B1 VH
VL: B1 VL with N32W, T52K
B17: XPA23 light chain T52D (Fab, V domains shown)
VH: B1 VH
VL: B1 VL with N32W, T52D
B18: XPA23 light chain W32G (Fab, V domains shown)
VH: B1 VH
VL: B1 VL with N32G
B19: XPA23 light chain T52R (Fab, V domains shown)
VH: B1 VH
VL: B1 VL with N32W, T52R
B20: XPA23 light chain W32V (Fab, V domains shown)
VH: B1 VH
VL: B1 VL with N32V
B21: XPA23 light chain W32Y (Fab, V domains shown)
VH: B1 VH
VL: B1 VL with N32Y
B22: XPA23 light chain T52H (Fab, V domains shown)
VH: B1 VH
VL: B1 VL with N32W, T52H
B23: XPA23 light chain W32R (Fab, V domains shown)
VH: B1 VH
VL: B1 VL with N32R
B24: XPA23 light chain T52F (Fab, V domains shown)
VH: B1 VH
VL: B1 VL with N32W, T52F
B25: XPA23 light chain W32K (Fab, V domains shown)
VH: B1 VH
VL: B1 VL with N32K
B26: XPA23 light chain W32I (Fab, V domains shown)
VH: B1 VH
VL: B1 VL with N32I
B27: XPA23 light chain T52Q (Fab, V domains shown)
VH: B1 VH
VL: B1 VL with N32W, T52Q
B28: XPA23 light chain T52S (Fab, V domains shown)
VH: B1 VH
VL: B1 VL with N32W, T52S
B29: XPA23 light chain T52P (Fab, V domains shown)
VH: B1 VH
VL: B1 VL with N32W, T52P
B30: XPA23 light chain T52Y (Fab, V domains shown)
VH: B1 VH
VL: B1 VL with N32W, T52Y
B31: XPA23 light chain W32H (Fab, V domains shown)
VH: B1 VH
VL: B1 VL with N32H
B32: XPA23 light chain W32E (Fab, V domains shown)
VH: B1 VH
VL: B1 VL with N32E
B33: XPA23 light chain W32L (Fab, V domains shown)
VH: B1 VH
VL: B1 VL with N32L
B34: XPA23 heavy chain D106G (Fab, V domains shown)
VH: B1 VH with D106G
VL: B1 VL with N32W
notes: Fab, periplasmic extract; also called C5A D106G
B35: XPA23 heavy chain F33V (Fab, V domains shown)
VH: B1 VH with F33V
VL: B1 VL with N32W
notes: Fab, periplasmic extract; also called C5A F33V
B36: XPA23 heavy chain F33A (Fab, V domains shown)
VH: B1 VH with F33A
VL: B1 VL with N32W
notes: Fab, periplasmic extract; also called C5A F33A
B37: XPA23 heavy chain F35I (Fab, V domains shown)
VH: B1 VH with F35I
VL: B1 VL with N32W
notes: Fab, periplasmic extract; also called C5A F35I
B38: XPA23 heavy chain F35A (Fab, V domains shown)
VH: B1 VH with F35A
VL: B1 VL with N32W
notes: Fab, periplasmic extract; also called C5A F35A
B39: XPA23 heavy chain F33G (Fab, V domains shown)
VH: B1 VH with F33G
VL: B1 VL with N32W
notes: Fab, periplasmic extract; also called C5A F33G
B40: XPA23 heavy chain F33P (Fab, V domains shown)
VH: B1 VH with F33P
VL: B1 VL with N32W
notes: Fab, periplasmic extract; also called C5A F33P
B41: XPA23 heavy chain F35G (Fab, V domains shown)
VH: B1 VH with F35G
VL: B1 VL with N32W
notes: Fab, periplasmic extract; also called C5A F35G
B42: XPA23 heavy chain F33T (Fab, V domains shown)
VH: B1 VH with F33T
VL: B1 VL with N32W
notes: Fab, periplasmic extract; also called C5A F33T
B43: XPA23 heavy chain F33L (Fab, V domains shown)
VH: B1 VH with F33L
VL: B1 VL with N32W
notes: Fab, periplasmic extract; also called C5A F33L
B44: XPA23 heavy chain F35L (Fab, V domains shown)
VH: B1 VH with F35L
VL: B1 VL with N32W
notes: Fab, periplasmic extract; also called C5A F35L
B45: XPA23 heavy chain F33I (Fab, V domains shown)
VH: B1 VH with F33I
VL: B1 VL with N32W
notes: Fab, periplasmic extract; also called C5A F33I

Target: T1, IL-1β (UniProt P01584 117-269)
T1 construct: Antigen immobilised on the Biacore chip
Assay: Biacore, periplasmic extract

| binding result | fold difference in affinity vs original [fold] | Binder |
| --- | --- | --- |
| no binding |  | B1 |
|  | 0.82 | B2 |
|  | 0.83 | B3 |
| no binding |  | B4 |
| no binding |  | B5 |
|  | 0.78 | B6 |
| no binding |  | B7 |
| no binding |  | B8 |
|  | 0.61 | B9 |
| no binding |  | B10 |
| no binding |  | B11 |
| no binding |  | B12 |
| no binding |  | B13 |
|  | 0.87 | B14 |
|  | 0.8 | B15 |
|  | 3.23 | B16 |
|  | 0.72 | B17 |

| binding result | fold difference in affinity vs original [fold] | Binder |
| --- | --- | --- |
| no binding |  | B18 |
|  | 3.37 | B19 |
| no binding |  | B20 |
| no binding |  | B21 |
|  | 0.91 | B22 |
| no binding |  | B23 |
|  | 1.05 | B24 |
| no binding |  | B25 |
| no binding |  | B26 |
|  | 0.83 | B27 |
|  | 0.78 | B28 |
|  | 1.08 | B29 |
|  | 1.01 | B30 |
| no binding |  | B31 |
| no binding |  | B32 |
| no binding |  | B33 |

Target: T2, IL-1β (UniProt P01584 117-269)
T2 construct: Antigen of XPA23
Assay: Biacore, Fab periplasmic extract

| fold difference in affinity against the original [fold] | Binder |
| --- | --- |
| 0.03 | B34 |
| 0.76 | B35 |
| 0.75 | B36 |
| 0.85 | B37 |
| 0.07 | B38 |
| 0.76 | B39 |
| 0.91 | B40 |
| 0.04 | B41 |
| 0.78 | B42 |
| 0.88 | B43 |
| 0.78 | B44 |
| 0.75 | B45 |
